The record followed here is publication PMC8773746.

The test concerns the target Human erythropoietin (Epoetin β) (human) (UniProt P01588). Briefly: SPR; EPO immobilised by amine coupling on a ProteOn GLH chip (up to 3 000 RU); S100 or CaM as analyte (0.25–4 μM); 25 °C; 10 mM HEPES, 150 mM NaCl, 0.05% TWEEN 20, pH 7.4, 1 mM CaCl2; heterogeneous ligand model, values averaged over analyte concentrations (n = 5). Background: In SPR one partner is held on a chip, and binding of the other changes the refractive index at the surface.

B1: Human S100P protein (wild-type) (natural protein)
chain: MTELETAMGMIIDVFSRYSGSEGSTQTLTKGELKVLMEKELPGFLQSGKDKDAVDKLLKDLDANGDAQVDFSEFIVFVAAITSACHKYFEKAGL
As for B1, the Kd1 (heterogeneous ligand model, ligand population L1) was found to be 540 nM; the Kd2 (heterogeneous ligand model, ligand population L2) worked out at 1.8 µM; the ka1 (heterogeneous ligand model, ligand population L1) came out at 2000 M⁻¹ s⁻¹; the ka2 (heterogeneous ligand model, ligand population L2) was 16000 M⁻¹ s⁻¹. For the same molecule, the kd1 (heterogeneous ligand model, ligand population L1) is 0.0011 s⁻¹ and the kd2 (heterogeneous ligand model, ligand population L2) stood at 0.028 s⁻¹.
